# Measurements published in patent EP2500357A2 (Abbott Laboratories, dated 2012).
# B1: anti-IL-12 mAb 1D4.1 (antibody, V domains shown)
# VH: EVTLRESGPALVKPTQTLTLTCTFSGFSLSKSVMGVSWIRQPPGKALEWLAHIYWDDDKYYNPSLKSRLTISKDTSKNQVVLTMTNMDPVDTATYYCARRGIRSAMDYWGQGTTVTVSS
# VL: DIVMTQSPDSLAVSLGERATINCKASQSVSNDVAWYQQKPGQPPKLLIYYASNRYTGVPDRFSGSGSGTDFTLTISSLQAEDVAVYYCQQDYNSPWTFGGGTKVEIKR
# B2: murine anti-hIL-1β mAb 6B12.4F6 (antibody, V domains shown)
# VH: EVQLQQSGPELVKTGTSVKISCKASGYSFTGYYMHWVRQSHGKSLEWIGYISCYNGFTSYNPKFKGKATFTVDTSSSTAYIQFSRLTSEDSAVYYCARSDYYGTNDYWGQGTTLTVSS
# VL: QIVLTQSPAIMSASPGEKVTITCSASSSVSYMHWFQQKPGASPKLWIYSTSNLASGVPARFSGSGSGTSYSLTVSRMEAEDAATYYCQQRSTYPYTFGGGTKLEIKR
# B3: ABT874 (anti-human IL-12p40 mAb) (antibody, V domains shown)
# VH: QVQLVESGGGVVQPGRSLRLSCAASGFTFSSYGMHWVRQAPGKGLEWVAFIRYDGSNKYYADSVKGRFTISRDNSKNTLYLQMNSLRAEDTAVYYCKTHGSHDNWGQGTMVTVSS
# VL: QSVLTQPPSVSGAPGQRVTISCSGSRSNIGSNTVKWYQQLPGTAPKLLIYYNDQRPSGVPDRFSGSKSGTSASLAITGLQAEDEADYYCQSYDRYTHPALLFGTGTKVTVLG
# B4: mouse anti-mouse IL-1β mAb 10G11 (antibody, V domains shown)
# VH: EVQLQQSGPELVKPGTSVKMSCKTSGYTFTSYVMHWVKQKPGQGLEWIGYIIPYNDNTKYNEKFKGKATLTSDKSSSTAYMELSSLTSEDSAVYYCARRNEYYGSSFFDYWGQGTTLTVSS
# VL: DIQMTQSPASLSASVGETVTITCRGSGILHNYLVWYQQKQGKSPQLLVYSAKILADGVPSRFSGSGSGTQYSLKINSLQPEDFGSYYCQHFWSTPFTFGSGTKLEIKR
# B5: murine anti-hIL-1β mAb 13F5.G5 (antibody, V domains shown)
# VH: QVQLQQSGAELVRPGSSVKISCKASGYAFSSYWMNWVKQRPGQGLEWIGQIYPGDGDTNYNGKFKGKATLTADKSSSTSYMQLSGLTSEDSAMYFCVRFPTGNDYYAMDYWGQGTSVTVSS
# VL: NIVLTQSPASLAVSLGQRATISCRASESVDSYGNSYMHWYQQKPGQPPKLLIYLASNLESGVPARFSGSGSRTDFTLTIDPVEADDAATYYCQQNNEDPFTFGSGTKLEIKR
# B6: hIL-1a/bDVD1-Ig (bispecific antibody, human IgG1, kappa)
# heavy: not shown
# light: NIVLTQSPASLAVSLGQRATISCRASESVDSYGNSYMHWYQQKPGQPPKLLIYLASNLESGVPARFSGSGSRTDFTLTIDPVEADDAATYYCQQNNEDPFTFGSGTKLEIKRNIQMTQTTSSLSASLGDRVTISCRASQDISNCLNWYQQKPDGTVKLLIYYTSRLHSGVPSRFSGSGSGTDYSLTISNLEQEDIATYFCQQGKTLPYAFGGGTKLEINRTVAAPSVFIFPPSDEQLKSGTASVVCLLNNFYPREAKVQWKVDNALQSGNSQESVTEQDSKDSTYSLSSTLTLSKADYEKHKVYACEVTHQGLSSPVTKSFNRGEC
# notes: No linker between the variable domains; also called hIL-1α/βDVD1-Ig
# B7: ABT325 (anti-human IL-18 mAb) (antibody, V domains shown)
# VH: EVQLVQSGTEVKKPGESLKISCKGSGYTVTSYWIGWVRQMPGKGLEWMGFIYPGDSETRYSPTFQGQVTISADKSFNTAFLQWSSLKASDTAMYYCARVGSGWYPYTFDIWGQGTMVTVSS
# VL: not shown
# B8: mouse anti-mouse IL-1α mAb 9H10 (antibody, V domains shown)
# VH: QVILKESGPGILQPSQTLSLTCSFSGFSLSTYGTAVNWIRQPSGKGLEWLAQIGSDDRKLYNPFLKSRITLSEDTSNSQVFLKITSVDTEDSATYYCANGVMEYWGLGTSVTVSS
# VL: SIVMTQTPKFLLVSAGDRVTITCKASQSVNHDVAWYQQMPGQSPKLLIYFASNRYTGVPDRFTGSGYGTDFTFTISTVQAEDLAVYFCQQDYSSPYTFGGGTKLEIKR
# B9: DVD1812SL (anti-IL12/IL18 DVD-Ig) (bispecific antibody, human IgG1, kappa)
# heavy: not shown
# light: EIVMTQSPATLSVSPGERATLSCRASESISSNLAWYQQKPGQAPRLFIYTASTRATDIPARFSGSGSGTEFTLTISSLQSEDFAVYYCQQYNNWPSITFGQGTRLEIKRTVAAPQSVLTQPPSVSGAPGQRVTISCSGSRSNIGSNTVKWYQQLPGTAPKLLIYYNDQRPSGVPDRFSGSKSGTSASLAITGLQAEDEADYYCQSYDRYTHPALLFGTGTKVTVLGTVAAPSVFIFPPSDEQLKSGTASVVCLLNNFYPREAKVQWKVDNALQSGNSQESVTEQDSKDSTYSLSSTLTLSKADYEKHKVYACEVTHQGLSSPVTKSFNRGEC
# B10: DVD1812LL (anti-IL12/IL18 DVD-Ig) (bispecific antibody, human IgG1, kappa)
# heavy: not shown
# light: EIVMTQSPATLSVSPGERATLSCRASESISSNLAWYQQKPGQAPRLFIYTASTRATDIPARFSGSGSGTEFTLTISSLQSEDFAVYYCQQYNNWPSITFGQGTRLEIKRTVAAPSVFIFPPQSVLTQPPSVSGAPGQRVTISCSGSRSNIGSNTVKWYQQLPGTAPKLLIYYNDQRPSGVPDRFSGSKSGTSASLAITGLQAEDEADYYCQSYDRYTHPALLFGTGTKVTVLGTVAAPSVFIFPPSDEQLKSGTASVVCLLNNFYPREAKVQWKVDNALQSGNSQESVTEQDSKDSTYSLSSTLTLSKADYEKHKVYACEVTHQGLSSPVTKSFNRGEC
# B11: mIL-1α/β DVD-Ig (bispecific antibody, mouse IgG2a, kappa)
# heavy: EVQLQQSGPELVKPGTSVKMSCKTSGYTFTSYVMHWVKQKPGQGLEWIGYIIPYNDNTKYNEKFKGKATLTSDKSSSTAYMELSSLTSEDSAVYYCARRNEYYGSSFFDYWGQGTTLTVSSAKTTAPSVYPLAPQVILKESGPGILQPSQTLSLTCSFSGFSLSTYGTAVNWIRQPSGKGLEWLAQIGSDDRKLYNPFLKSRITLSEDTSNSQVFLKITSVDTEDSATYYCANGVMEYWGLGTSVTVSSAKTTAPSVYPLAPVCGDTTGSSVTLGCLVKGYFPEPVTLTWNSGSLSSGVHTFPAVLQSDLYTLSSSVTVTSSTWPSQSITCNVAHPASSTKVDKKIEPRGPTIKPCPPCKCPAPNLLGGPSVFIFPPKIKDVLMISLSPIVTCVVVDVSEDDPDVQISWFVNNVEVHTAQTQTHREDYNSTLRVVSALPIQHQDWMSGKEFKCKVNNKDLPAPIERTISKPKGSVRAPQVYVLPPPEEEMTKKQVTLTCMVTDFMPEDIYVEWTNNGKTELNYKNTEPVLDSDGSYFMYSKLRVEKKNWVERNSYSCSVVHEGLHNHHTTKSFSRTPGK
# light: DIQMTQSPASLSASVGETVTITCRGSGILHNYLVWYQQKQGKSPQLLVYSAKILADGVPSRFSGSGSGTQYSLKINSLQPEDFGSYYCQHFWSTPFTFGSGTKLEIKRADAAPTVSIFPPSIVMTQTPKFLLVSAGDRVTITCKASQSVNHDVAWYQQMPGQSPKLLIYFASNRYTGVPDRFTGSGYGTDFTFTISTVQAEDLAVYFCQQDYSSPYTFGGGTKLEIKRADAAPTVSIFPPSSEQLTSGGASVVCFLNNFYPKDINVKWKIDGSERQNGVLNSWTDQDSKDSTYSMSSTLTLTKDEYERHNSYTCEATHKTSTSPIVKSFNRNEC
# Columns and labels:
# human IL-12 [1] = target: T1, human IL-12 (human, UniProt P29459 23-219; P29460 23-328); experiment: cell-based or functional assay
# T1 sequence (looked up) 1: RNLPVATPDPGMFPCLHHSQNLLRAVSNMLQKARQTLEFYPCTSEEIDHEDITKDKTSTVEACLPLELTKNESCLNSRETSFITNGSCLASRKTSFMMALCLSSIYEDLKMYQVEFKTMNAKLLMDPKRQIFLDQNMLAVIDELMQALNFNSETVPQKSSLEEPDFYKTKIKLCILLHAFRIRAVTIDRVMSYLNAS
# T1 sequence (looked up) 2: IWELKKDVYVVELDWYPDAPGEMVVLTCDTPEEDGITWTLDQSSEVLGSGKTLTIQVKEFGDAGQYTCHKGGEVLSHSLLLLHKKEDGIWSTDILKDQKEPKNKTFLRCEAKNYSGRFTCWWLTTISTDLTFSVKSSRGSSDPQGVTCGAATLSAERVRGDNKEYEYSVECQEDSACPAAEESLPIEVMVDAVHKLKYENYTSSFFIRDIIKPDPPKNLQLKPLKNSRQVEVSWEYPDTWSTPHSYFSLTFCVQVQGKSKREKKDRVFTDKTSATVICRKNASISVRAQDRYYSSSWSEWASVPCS
# recombinant human IL-1β [2] = target: T2, recombinant human IL-1β (human, UniProt P01584 117-269); experiment: cell-based or functional assay
# recombinant human IL-1β [3] = target: T2, recombinant human IL-1β; experiment: cell-based or functional assay; remark: listed apart in the source
# human IL-12 [4] = target: T1, human IL-12; experiment: cell-based or functional assay; remark: listed apart in the source
# mouse IL-1β = mouse IL-1β (mouse, UniProt P10749 118-269); experiment: cell-based or functional assay
# Sequence of mouse IL-1β (P10749 118-269 limits assumed): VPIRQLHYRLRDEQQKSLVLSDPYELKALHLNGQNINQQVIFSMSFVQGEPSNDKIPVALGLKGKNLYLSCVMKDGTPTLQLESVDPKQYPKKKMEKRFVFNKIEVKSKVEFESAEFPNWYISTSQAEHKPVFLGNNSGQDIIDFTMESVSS
# recombinant human IL-1β [5] = target: T2, recombinant human IL-1β; experiment: cell-based or functional assay; remark: listed apart in the source
# recombinant human IL-1α [6] = target: T3, recombinant human IL-1α (human, UniProt P01583 113-271); experiment: cell-based or functional assay
# T3 sequence (looked up): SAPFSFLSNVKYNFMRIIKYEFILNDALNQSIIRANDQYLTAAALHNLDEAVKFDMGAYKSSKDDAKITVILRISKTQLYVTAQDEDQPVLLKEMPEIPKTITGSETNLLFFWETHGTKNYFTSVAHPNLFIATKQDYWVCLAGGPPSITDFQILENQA
# recombinant human IL-1α [7] = target: T3, recombinant human IL-1α; experiment: SPR (Biacore), hIL-1α as 2nd antigen
# recombinant human IL-1β [8] = target: T2, recombinant human IL-1β; experiment: cell-based or functional assay; remark: listed apart in the source
# recombinant human IL-1α [9] = target: T3, recombinant human IL-1α; experiment: cell-based or functional assay; remark: listed apart in the source
# recombinant human IL-1α [10] = target: T3, recombinant human IL-1α; experiment: SPR (Biacore), hIL-1α as 1st antigen
# recombinant human IL-1β [11] = target: T2, recombinant human IL-1β; experiment: SPR (Biacore), hIL-1β as 2nd antigen
# recombinant human IL-1β [12] = target: T2, recombinant human IL-1β; experiment: SPR (Biacore), hIL-1β as 1st antigen
# human IL-18 [13] = target: T4, human IL-18 (human, UniProt Q14116 37-193); experiment: cell-based or functional assay
# human IL-18 [14] = target: T4, human IL-18; experiment: cell-based or functional assay; remark: listed apart in the source
# mouse IL-1α = target: T5, mouse IL-1α (mouse, UniProt P01582 115-270); experiment: cell-based or functional assay
# T5 sequence (looked up): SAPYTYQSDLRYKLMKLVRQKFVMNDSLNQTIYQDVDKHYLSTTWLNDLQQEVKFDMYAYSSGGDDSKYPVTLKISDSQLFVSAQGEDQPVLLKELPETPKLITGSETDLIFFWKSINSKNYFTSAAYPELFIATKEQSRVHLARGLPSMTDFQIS
binder,measurement,setting,value
B1,"Potency (IC50), PBMC assay (IL-12)",human IL-12 [1],0.418 nM
B2,"IC50, MRC-5 bioassay",recombinant human IL-1β [2],0.4 nM
same,"IC50, inhibition of IL-8 production by MRC-5 cells",recombinant human IL-1β [3],0.32 nM
B3,"IC50, IL-12-induced IFN-γ production by PHA blast cells",human IL-12 [4],0.005 nM
B4,"IC50, in vitro potency (assay not described)",mouse IL-1β,0.37 nM
B5,"Potency (IC50), MRC-5 bioassay",recombinant human IL-1β [5],0.6 nM
same,"IC50, inhibition of IL-8 production by MRC-5 cells",recombinant human IL-1β [3],0.6 nM
B6,"Potency (IC50), MRC-5 bioassay",recombinant human IL-1β [5],3.1 nM
same,"Potency (IC50), MRC-5 bioassay",recombinant human IL-1α [6],2.3 nM
same,Stoichiometry hIL-1α:DVD-Ig,recombinant human IL-1α [7],1.1
same,"dual-inhibition activity, IL-8 synthesis by MRC-5 cells with both IL-1α and IL-1β present",recombinant human IL-1β [8],2.2 nM
same,"dual-inhibition activity, IL-8 synthesis by MRC-5 cells with both IL-1α and IL-1β present",recombinant human IL-1α [9],2.2 nM
same,neutralizing activity against hIL-1α relative to the chimeric Abs,recombinant human IL-1α [9],3 fold
same,Stoichiometry hIL-1α:DVD-Ig,recombinant human IL-1α [10],2.3
same,Stoichiometry hIL-1β:DVD-Ig,recombinant human IL-1β [11],1
same,Stoichiometry hIL-1β:DVD-Ig,recombinant human IL-1β [12],1.5
B7,"IC50, KG-1 bioassay (IFN-γ production)",human IL-18 [13],0.3 nM
same,"Potency (IC50), KG-1 bioassay (IL-18)",human IL-18 [14],0.0687 nM
B8,"IC50, in vitro potency (assay not described)",mouse IL-1α,0.2 nM
B9,"Potency (IC50), IL-12-induced IFN-γ production by PHA blast cells",human IL-12 [4],0.366 nM
same,"Potency (IC50), KG-1 bioassay (IFN-γ production)",human IL-18 [13],0.04 nM
B10,"Potency (IC50), IL-12-induced IFN-γ production by PHA blast cells",human IL-12 [4],0.118 nM
same,"Potency (IC50), KG-1 bioassay (IFN-γ production)",human IL-18 [13],0.078 nM
B11,"IC50, in vitro potency (assay not described)",mouse IL-1α,2 nM
same,"IC50, in vitro potency (assay not described)",mouse IL-1β,0.8 nM
